Test results published in paper doi:10.1101/2023.11.20.567910.

Columns and labels:
[1] = target: HIV-1AD8 Env variants (N332 substituted) tested against V3-glycan bnAbs
[2] = target: HIV-1AD8 Env variants (N332 substituted) tested against V3-glycan bnAbs; remark: listed apart in the source

2G12 (antibody)
IC50 of neutralisation: entry of Env-pseudotyped virus into Cf2-Th/CD4+CCR5+ cells (luciferase); told of most variants here, of all AD8 variants in p-0007 [1]: > 10 µg/mL

10–1074 (antibody)
IC50 of neutralisation: entry of Env-pseudotyped virus into Cf2-Th/CD4+CCR5+ cells (luciferase); told of most variants [1]: > 10 µg/mL

PGT121 (antibody)
IC50 of neutralisation: entry of Env-pseudotyped virus into Cf2-Th/CD4+CCR5+ cells (luciferase) [2]: < 1 µg/mL
